Measured values: patent publication US20240132603A1 (HARBOUR BIOMED US, published 2024)
Like-named read-outs stand apart in the source and are kept apart here.

Legend:
[1] = target: T1, cynomolgus monkey CCR8 (cynomolgus monkey, UniProt G7NYJ2 1-355); experiment: FACS, CHO-K1-CynoCCR8 cells
T1 construct: whole, on cells; also called CynoCCR8
Procedure: (§1) Cells overexpressing cynomolgus monkey CCR8, CHO-K1-CynoCCR8, were digested with pancreatin, counted and resuspended to a cell density of 1E6 cells/mL. The cell suspension was added to a 96-well V-bottom plate at 100 μL/well and centrifuged at 300 g for 5 min, and the supernatant was discarded. The anti-CCR8 antibodies provided herein was used as a primary antibody and diluted in a 5-fold gradient with an FACS buffer (DPBS containing 2% FBS) from 200 nM. The diluted primary antibody was added at 100 μL/well to resuspend the cells, and the mixture was incubated at 4° C. for 1 h. The plate was washed twice with DPBS and centrifuged at 300×g for 5 min, and the supernatant was discarded. The secondary antibody diluted in a 1:1000 ratio with an FACS buffer was added at 100 μL/well to suspend the cells, and the mixture was incubated at 4° C. for 40 min. The plate was washed twice with DPBS and centrifuged at 300×g for 5 min, and the supernatant was discarded. DPBS was added at 200 μL/well to suspend the cells, and the mixture was loaded on an FACS machine for analysis.

[2] = target: T2, human CCR8 (human, UniProt P51685 1-355); experiment: FACS, HEK293-hCCR8 cells
T2 construct: whole, on cells; construct used for the overexpressing cell lines is not described; also called hCCR8
Procedure: as §1, with “human CCR8” for “cynomolgus monkey CCR8, CHO-K1-CynoCCR8,”

[3] = target: T2, human CCR8; experiment: FACS, CHO-K1-hCCR8 cells
Method in brief: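 Binding was measured on intact cells by two-step staining at 4 °C. Test antibodies were applied from 200 nM in 5-fold steps for 1 h, and a secondary reagent at 1:1000 for 40 min, before analysis on a FACS instrument.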

[4] = target: T1, cynomolgus monkey CCR8; experiment: FACS, CHO-K1-CynoCCR8 cells; remark: listed apart in the source
Procedure: as §1

[5] = target: T2, human CCR8; experiment: FACS, CHO-K1-hCCR8 cells; remark: listed apart in the source
Procedure: as §1, with “human CCR8” for “cynomolgus monkey CCR8, CHO-K1-CynoCCR8,”

[6] = target: T2, human CCR8; experiment: FACS competition on HEK293-hCCR8 cells against a biotin-labelled anti-CCR8 antibody at its EC80; the labelled antibody of this panel is not named on the sheet
Procedure: (§2) The antibody was conjugated with Sulfo-NHS-LC-Biotin at a molar ratio of 5:1 (1 mol antibody was added to 5 mol Sulfo-NHS-LC-Biotin) with reference to the product instructions (ThermoFisher, Cat No. A39257) and incubated on ice for 2 h. The coupled antibody was purified with a Zeba desalting column (ThermoFisher, Cat No. 89882). Cells overexpressing human CCR8, HEK293-hCCR8, were added to a V-bottom 96-well plate at a density of 1E5 cells/well and centrifuged at 300 g for 5 min, and the supernatant was discarded. The competitive antibody was serially diluted in a ratio of 1:10 from 200 nM to obtain 8 concentration points. The Biotin-antibody and the competition antibody were mixed in a 1:1 ratio on an HEK293 cell line overexpressing human CCR8 by the binding EC₈₀ concentration. The cells in the 96-well plate were resuspended and incubated at 4° C. for 1 h. The plate was washed twice with DPBS at 200 μL/well. The secondary antibody diluted in a 1:1000 ratio was added at 100 μL/well, and the mixture was incubated at 4° C. for 40 min. The plate was washed twice with DPBS at 200 μL/well. Finally, DPBS was […] at 200 μL/well to suspend the cells, and the mixture was loaded on an FACS machine for analysis.

[7] = target: T2, human CCR8; experiment: FACS, HEK293-hCCR8 cells; remark: listed apart in the source
Procedure: as §1, with “human CCR8” for “cynomolgus monkey CCR8, CHO-K1-CynoCCR8,”

[8] = target: T2, human CCR8; experiment: FACS, Baf3-hCCR8 cells
Procedure: as §1, with “human CCR8” for “cynomolgus monkey CCR8, CHO-K1-CynoCCR8,”

[9] = target: T2, human CCR8; experiment: FACS competition on HEK293-hCCR8 cells against a biotin-labelled anti-CCR8 antibody at its EC80; the labelled antibody of this panel is not named on the sheet; remark: listed apart in the source
Procedure: as §2

[10] = target: T2, human CCR8; experiment: FACS, CHO-K1-hCCR8 cells; remark: listed apart in the source
Procedure: as §1, with “human CCR8” for “cynomolgus monkey CCR8, CHO-K1-CynoCCR8,”

[11] = target: T2, human CCR8; experiment: FACS competition on HEK293-hCCR8 cells against a biotin-labelled anti-CCR8 antibody at its EC80; the labelled antibody of this panel is not named on the sheet; remark: listed apart in the source
Procedure: as §2

[12] = target: T1, cynomolgus monkey CCR8; experiment: FACS, CHO-K1-CynoCCR8 cells; remark: listed apart in the source
Procedure: as §1

[13] = target: T2, human CCR8; experiment: FACS, CHO-K1-hCCR8 cells; remark: listed apart in the source
Procedure: as §1, with “human CCR8” for “cynomolgus monkey CCR8, CHO-K1-CynoCCR8,”

[14] = target: T2, human CCR8; experiment: FACS competition on HEK293-hCCR8 cells against a biotin-labelled anti-CCR8 antibody at its EC80; the labelled antibody of this panel is not named on the sheet; remark: listed apart in the source
Procedure: as §2

[15] = target: T1, cynomolgus monkey CCR8; experiment: FACS, CHO-K1-CynoCCR8 cells; remark: listed apart in the source
Procedure: as §1

[16] = target: T2, human CCR8; experiment: FACS competition on HEK293-hCCR8 cells against a biotin-labelled anti-CCR8 antibody at its EC80; the labelled antibody of this panel is not named on the sheet; remark: listed apart in the source
Procedure: as §2

[17] = target: T2, human CCR8; experiment: cell-based or functional assay
[18] = target: T2, human CCR8; experiment: cell-based or functional assay; remark: listed apart in the source
[19] = target: T2, human CCR8; experiment: FACS, CHO-K1-hCCR8 cells, Fab
Procedure: as §1, with “human CCR8” for “cynomolgus monkey CCR8, CHO-K1-CynoCCR8,”

T2 sequence (P51685 whole entry): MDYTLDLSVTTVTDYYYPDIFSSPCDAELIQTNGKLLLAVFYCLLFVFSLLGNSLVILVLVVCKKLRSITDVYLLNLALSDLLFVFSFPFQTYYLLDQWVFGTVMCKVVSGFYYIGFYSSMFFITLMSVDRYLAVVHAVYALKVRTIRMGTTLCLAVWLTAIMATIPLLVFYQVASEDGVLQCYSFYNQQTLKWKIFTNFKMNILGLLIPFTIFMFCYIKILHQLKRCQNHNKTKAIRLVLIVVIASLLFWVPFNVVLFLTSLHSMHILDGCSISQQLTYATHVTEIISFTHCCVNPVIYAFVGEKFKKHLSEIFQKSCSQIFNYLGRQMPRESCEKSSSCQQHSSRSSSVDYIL
T1 sequence (G7NYJ2 entry or part of it): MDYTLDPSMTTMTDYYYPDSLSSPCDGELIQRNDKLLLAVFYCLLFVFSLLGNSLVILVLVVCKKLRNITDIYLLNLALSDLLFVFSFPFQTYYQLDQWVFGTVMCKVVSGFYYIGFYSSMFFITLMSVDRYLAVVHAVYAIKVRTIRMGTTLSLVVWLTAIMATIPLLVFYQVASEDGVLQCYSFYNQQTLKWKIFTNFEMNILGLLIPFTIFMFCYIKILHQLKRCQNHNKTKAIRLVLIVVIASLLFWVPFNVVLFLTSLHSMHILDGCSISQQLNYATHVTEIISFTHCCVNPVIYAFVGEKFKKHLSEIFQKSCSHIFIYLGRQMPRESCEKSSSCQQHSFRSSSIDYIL

B1: PR004128 (antibody, human IgG1, kappa)
heavy: not shown
light: DIVMTQAAPSVPVTPGESVSISCRSSKSLLHSNGKIYLYWFLQRPGQSPQLLIYRMSNLASGVPDRFSGSGSGTAFTLRISRVEAEDVGVYYCMQHLEYPLTFGAGTKLEIKRTVAAPSVFIFPPSDEQLKSGTASVVCLLNNFYPREAKVQWKVDNALQSGNSQESVTEQDSKDSTYSLSSTLTLSKADYEKHKVYACEVTHQGLSSPVTKSFNRGEC
notes: chimeric, human IgG1 constant region; also called RP004128; PRO4128
- EC50 [1]: 2.26 nM
- EC50 [2]: 4.53 nM
- EC50 [3]: 0.42 nM
- EC50 [4]: 7.39 nM
- EC50 [5]: 2.54 nM
- IC50 (read off the curve) [6]: ~2 nM
- EC50 [7]: 0.87 nM
- EC50 [8]: 0.14 nM
- IC50 (read off the curve) [9]: ~3 nM
- EC50 [10]: 0.55 nM
- IC50 (read off the curve) [11]: ~2 nM
- EC50 [12]: 4.73 nM
- EC50 [13]: 0.91 nM
- IC50 (read off the curve) [14]: 1 to 2 nM
- EC50 [15]: 0.83 nM
- IC50 (read off the curve) [16]: ~2 nM
- Bottom %, blocking of CCL1-stimulated calcium flux [17]: 7%
- IC50(nM), blocking of CCL1-stimulated calcium flux [17]: 1.51 nM

B2: PR004250 (antibody, human IgG1, kappa)
heavy: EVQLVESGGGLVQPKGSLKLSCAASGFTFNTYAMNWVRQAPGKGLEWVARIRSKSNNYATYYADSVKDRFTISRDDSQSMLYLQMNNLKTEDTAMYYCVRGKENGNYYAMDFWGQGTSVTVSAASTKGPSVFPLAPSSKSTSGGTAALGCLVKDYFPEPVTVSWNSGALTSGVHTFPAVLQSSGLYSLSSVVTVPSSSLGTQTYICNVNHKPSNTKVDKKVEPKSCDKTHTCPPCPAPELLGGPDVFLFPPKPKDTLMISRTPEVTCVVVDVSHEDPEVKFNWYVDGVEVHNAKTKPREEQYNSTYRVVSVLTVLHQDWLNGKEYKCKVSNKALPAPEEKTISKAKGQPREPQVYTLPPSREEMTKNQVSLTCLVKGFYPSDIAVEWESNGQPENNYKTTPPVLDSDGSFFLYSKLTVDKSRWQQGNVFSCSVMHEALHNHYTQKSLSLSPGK
light: DIVMTQAAPSVPVTPGESVSISCRSSKSLLHSNGNTYLYWFLQRPGQSPQLLIYRMSNLASGVPDRFSGSGSGTAFTLRISRVEAEDVGVYYCMQHLEYPLTFGAGTKLEMKRTVAAPSVFIFPPSDEQLKSGTASVVCLLNNFYPREAKVQWKVDNALQSGNSQESVTEQDSKDSTYSLSSTLTLSKADYEKHKVYACEVTHQGLSSPVTKSFNRGEC
notes: PR004125 with S239D and I332E (DE) in the IgG1 constant region
- EC50 [2]: 1.66 nM
- EC50 [4]: 3.5 nM
- EC50, ADCC reporter gene activity (Jurkat/FcγR III-NFAT effector cells) [18]: 0.04 nM

B3: PR004131 (antibody, human IgG1, kappa)
heavy: not shown
light: DIVMTQAAPSVPVTPGESVSISCRSNKSLLHSNGNTYLYWFLQRPGQSPQLLIYRMSNLASGVPDRFSGSGSGTAFTLRISRVEAEDVGVYYCMQHLEYPLTFGAGTKLEIKRTVAAPSVFIFPPSDEQLKSGTASVVCLLNNFYPREAKVQWKVDNALQSGNSQESVTEQDSKDSTYSLSSTLTLSKADYEKHKVYACEVTHQGLSSPVTKSFNRGEC
notes: chimeric, human IgG1 constant region
- EC50 [2]: 1.94 nM
- EC50 [3]: 0.52 nM
- EC50 [4]: 8.65 nM
- IC50 (read off the curve) [6]: ~2 nM
- EC50 [7]: 0.79 nM
- EC50 [8]: 0.2 nM
- IC50 (read off the curve) [9]: ~3 nM
- IC50 (read off the curve) [11]: ~2 nM
- IC50 (read off the curve) [14]: 1 to 2 nM
- EC50 [15]: 1.6 nM
- IC50 (read off the curve) [16]: ~2 nM
- Bottom %, blocking of CCL1-stimulated calcium flux [17]: 0%
- IC50(nM), blocking of CCL1-stimulated calcium flux [17]: 1.67 nM

B4: PR004121 (antibody, human IgG1, kappa, V domains shown)
VH: EVQLVESGGGLVQPKGSLKLSCAASGFTFNTYAMNWVRQAPGKGLEWVARIRSKSNNYATYYADSVKDRFTISRDDSQNMLYLQMNNLKTEDTAMYYCVRGKENGNYYAMDFWGQGTSVTVSS
VL: DIVITQAAPSVPVTPGESVSISCRSSKSLLHSNGNTYLYWFLQRPGQSPQLLIYRMSNLASGVPDRFSGSGSGTAFTLRISRVEAEDVGVYYCMQHLEYPFTFGGGTKLEMKR
notes: as for B3
- EC50 [2]: 0.9 nM
- EC50 [3]: 0.41 nM
- IC50 (read off the curve) [6]: ~2 nM
- EC50 [7]: 0.63 nM
- EC50 [8]: 0.22 nM
- IC50 (read off the curve) [9]: ~3 nM
- IC50 (read off the curve) [11]: ~2 nM
- IC50 (read off the curve) [14]: 1 to 2 nM
- IC50 (read off the curve) [16]: ~2 nM
- Bottom %, blocking of CCL1-stimulated calcium flux [17]: 0%
- IC50(nM), blocking of CCL1-stimulated calcium flux [17]: 1.44 nM

B5: PR006275AF (antibody, human IgG1, kappa)
heavy: not shown
light: DIVMTQSPLSLPVTLGQPASISCRSSKSLLHSNAKIYLYWFQQRPGQSPRLLIYRMSNLASGVPDRFSGSGSGTDFTLKISRVEAEDVGVYYCMQHLEYPLTFGQGTKLEIKRTVAAPSVFIFPPSDEQLKSGTASVVCLLNNFYPREAKVQWKVDNALQSGNSQESVTEQDSKDSTYSLSSTLTLSKADYEKHKVYACEVTHQGLSSPVTKSFNRGEC
modifications: afucosylated (AF) Fc glycan, produced with 2-fluoro peracetylated fucose
notes: also called PR00PR006275AF; R00PR006275AF
- EC50 [3]: 0.4 nM
- EC50 [15]: 0.51 nM
- EC50, ADCC reporter gene activity (Jurkat/FcγR III-NFAT effector cells) [18]: 2.6 nM

B6: PR006276AF (antibody, human IgG1, kappa)
heavy: not shown
light: DIVMTQSPLSLPVTLGQPASISCRSSKSLLHSNAKIYLYWFQQRPGQSPRLLIYRMSNLASGVPDRFSGSGSGTDFTLKISRVEAEDVGVYYCMQHLEYPLTFGQGTKLEIKRTVAAPSVFIFPPSDEQLKSGTASVVCLLNNFYPREAKVQWKVDNALQSGNSQESVTEQDSKDSTYSLSSTLTLSKADYEKHKVYACEVTHQGLSSPVTKSFNRGEC
modifications: afucosylated (AF) Fc glycan, produced with 2-fluoro peracetylated fucose
- EC50 [3]: 0.39 nM
- EC50 [15]: 0.5 nM
- EC50, ADCC reporter gene activity (Jurkat/FcγR III-NFAT effector cells) [18]: 1.66 nM

B7: PR005787 (Fab, V domains shown)
VH: EVQLVESGGGLVKPGGSLRLSCAASGFTFSTYAMNWVRQAPGKGLEWVGRIRSKSNYYATYYADSVKDRFTISRDDSKSTLYLQMNSLKTEDTAVYYCVRGKEIGKYYAMDFWGQGTTVTVSS
VL: DIVMTQSPLSLPVTLGQPASISCRSSKSLLHSNAKIYLYWFQQRPGQSPRLLIYRMSNLASGVPDRFSGSGSGTDFTLKISRVEAEDVGVYYCMQHLEYPLTFGQGTKLEIKR
- EC50 [19]: 0.74 nM
